Results on one molecule are retold here after article PMC10989685, “Structural and functional characterization of the IgSF21-neurexin2α complex and its related signaling pathways in the regulation of inhibitory synapse organization” (Frontiers in Molecular Neuroscience, 2024).

This assay addresses T1, Recombinant human Fc-tagged NRXN2α (human Nrxn2α-Fc, R&D Systems #6636-NX) (human, UniProt Q9P2S2 29-1636).
T1 construct: Neurexin2α (Nrxn2α), human, ectodomain; The catalogue number is printed for the pull-down only; Limits and splice variant are in the supplier's data sheet; also called soluble Nrxn2α ectodomain; soluble Nrxn2α; source: bought: R&D Systems (#6636-NX), highly purified
The assay is described as follows: SPR; Biacore T200; IgSF21-His amine-coupled to a CM5 chip (500 RU); NRXN2α-Fc as analyte, 0 to 200 nM; PBS pH 7.4, 0.025% Tween-20, 25°C, 20 μl/min; one-site Langmuir (1:1) model, kinetic analysis. Conditions: both partners purified.

T1 sequence (Q9P2S2 29-1636): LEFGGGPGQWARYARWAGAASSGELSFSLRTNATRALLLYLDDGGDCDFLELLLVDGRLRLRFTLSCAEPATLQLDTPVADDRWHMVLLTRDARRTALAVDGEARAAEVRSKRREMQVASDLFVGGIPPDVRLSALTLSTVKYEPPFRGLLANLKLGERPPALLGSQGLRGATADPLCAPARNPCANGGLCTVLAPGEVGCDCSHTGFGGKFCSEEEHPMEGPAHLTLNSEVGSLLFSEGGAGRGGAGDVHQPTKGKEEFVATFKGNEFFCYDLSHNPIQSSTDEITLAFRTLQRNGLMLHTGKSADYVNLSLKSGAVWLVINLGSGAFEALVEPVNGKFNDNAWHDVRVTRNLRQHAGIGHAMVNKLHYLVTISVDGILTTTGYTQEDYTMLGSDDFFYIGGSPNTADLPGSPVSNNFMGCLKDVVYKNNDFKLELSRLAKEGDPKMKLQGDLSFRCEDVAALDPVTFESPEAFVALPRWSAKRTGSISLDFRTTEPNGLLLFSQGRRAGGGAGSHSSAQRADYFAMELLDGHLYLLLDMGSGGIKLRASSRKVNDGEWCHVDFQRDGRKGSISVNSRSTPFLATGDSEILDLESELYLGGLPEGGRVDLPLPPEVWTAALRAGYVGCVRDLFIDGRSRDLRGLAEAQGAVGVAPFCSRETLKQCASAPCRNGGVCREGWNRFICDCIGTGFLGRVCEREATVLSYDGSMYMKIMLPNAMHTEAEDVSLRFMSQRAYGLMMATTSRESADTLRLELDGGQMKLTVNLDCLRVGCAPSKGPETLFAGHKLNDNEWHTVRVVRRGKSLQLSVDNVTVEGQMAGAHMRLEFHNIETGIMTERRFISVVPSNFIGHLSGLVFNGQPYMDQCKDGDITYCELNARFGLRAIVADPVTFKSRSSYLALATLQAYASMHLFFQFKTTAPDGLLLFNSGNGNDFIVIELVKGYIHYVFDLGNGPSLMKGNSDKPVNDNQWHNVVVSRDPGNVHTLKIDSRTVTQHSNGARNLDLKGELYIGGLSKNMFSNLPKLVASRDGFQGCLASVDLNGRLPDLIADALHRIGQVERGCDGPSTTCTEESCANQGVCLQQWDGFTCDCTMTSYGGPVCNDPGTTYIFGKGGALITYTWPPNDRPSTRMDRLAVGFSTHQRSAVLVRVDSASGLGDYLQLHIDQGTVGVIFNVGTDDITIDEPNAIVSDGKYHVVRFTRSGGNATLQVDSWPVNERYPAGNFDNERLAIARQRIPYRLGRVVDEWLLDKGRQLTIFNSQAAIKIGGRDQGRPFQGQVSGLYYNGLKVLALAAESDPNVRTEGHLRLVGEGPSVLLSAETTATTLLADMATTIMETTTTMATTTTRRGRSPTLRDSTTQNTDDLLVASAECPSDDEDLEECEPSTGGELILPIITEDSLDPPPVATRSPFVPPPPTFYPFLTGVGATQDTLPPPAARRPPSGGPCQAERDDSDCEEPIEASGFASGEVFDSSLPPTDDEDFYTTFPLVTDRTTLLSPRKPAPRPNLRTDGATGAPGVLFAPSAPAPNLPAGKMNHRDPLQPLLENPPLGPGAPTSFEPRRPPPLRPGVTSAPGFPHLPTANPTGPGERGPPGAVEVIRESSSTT

B1: Recombinant human His-tagged IgSF21 protein (R&D Systems #10330-S2) (natural protein, UniProt Q96ID5 25-444, looked up)
chain: YLTVNIEPLPPVVAGDAVTLKCNFKTDGRMREIVWYRVTDGGTIKQKIFTFDAMFSTNYSHMENYRKREDLVYQSTVRLPEVRISDNGPYECHVGIYDRATREKVVLASGNIFLNVMAPPTSIEVVAADTPAPFSRYQAQNFTLVCIVSGGKPAPMVYFKRDGEPIDAVPLSEPPAASSGPLQDSRPFRSLLHRDLDDTKMQKSLSLLDAENRGGRPYTERPSRGLTPDPNILLQPTTENIPETVVSREFPRWVHSAEPTYFLRHSRTPSSDGTVEVRALLTWTLNPQIDNEALFSCEVKHPALSMPMQAEVTLVAPKGPKIVMTPSRARVGDTVRILVHGFQNEVFPEPMFTWTRVGSRLLDGSAEFDGKELVLERVPAELNGSMYRCTAQNPLGSTDTHTRLIVFENPNIPRGTEDSN
notes: Immunoglobulin superfamily member 21 (IgSF21), human, soluble recombinant protein; Soluble bought protein, probably the ectodomain without the GPI-anchor signal; also called IgSF21-His; human IgSF21-His; source: bought: R&D Systems (#10330-S2), purified
With B1, the Kd amounted to 5.67 nM.
